Data on 42 molecules can be found in patent US20220064329A1 (Novo Nordisk, published 2022).

Sequences and labels used below:
B1: VH SEQ ID NO 586 / VL SEQ ID NO 454 (antibody, IgG4, V domains shown)
VH: QVQLQESGPGLVKPSDTLSLTCAVSGYSISSDSAWSWIRQPPGKGLEWIGYIQYSGSTNYNPSLKSRVTMSVDTSKNQFSLKLSSVTALDTAVYYCARSVNYYGNSFAVGYWGQGTLVTVSS
VL: EIVLTQSPATLSLSPGERATLSCRASQGVSDYLHWYQQKPGEAPRLLIKYASQPATGIPARFSGSGSGTDFTLTISSLEPEDFAVYYCQNGHSFPLTFGQGTKLEIK
notes: humanized 11F2; IgG4 S228P/kappa
B2: VH SEQ ID NO 602 / VL SEQ ID NO 470 (antibody, IgG4, V domains shown)
VH: B1 VH with D16Q, A23T, Y27G, M70I, L89A
VL: B1 VL with E42Q
notes: as for B1
B3: VH SEQ ID NO 586 / VL SEQ ID NO 478 (antibody, IgG4, V domains shown)
VH: B1 VH
VL: B1 VL with E42Q, N90Q
notes: as for B1
B4: VH SEQ ID NO 602 / VL SEQ ID NO 478 (antibody, IgG4, V domains shown)
VH: B1 VH with D16Q, A23T, Y27G, M70I, L89A
VL: B1 VL with E42Q, N90Q
notes: as for B1
B5: VH SEQ ID NO 602 / VL SEQ ID NO 358 (antibody, IgG4, V domains shown)
VH: B1 VH with D16Q, A23T, Y27G, M70I, L89A
VL: B1 VL with V29I, E42Q, A51T
notes: as for B1
B6: VH SEQ ID NO 594 / VL SEQ ID NO 494 (antibody, IgG4, V domains shown)
VH: B1 VH with G45K, Y111P
VL: B1 VL with E42Q, F83V
notes: as for B1
B7: VH SEQ ID NO 602 / VL SEQ ID NO 350 (antibody, IgG4, V domains shown)
VH: B1 VH with D16Q, A23T, Y27G, M70I, L89A
VL: B1 VL with V29I, E42Q, A51T, Q100A, I106L
notes: as for B1
B8: VH SEQ ID NO 586 / VL SEQ ID NO 470 (antibody, IgG4, V domains shown)
VH: B1 VH
VL: B1 VL with E42Q
notes: as for B1
B9: VH SEQ ID NO 602 / VL SEQ ID NO 502 (antibody, IgG4, V domains shown)
VH: B1 VH with D16Q, A23T, Y27G, M70I, L89A
VL: B1 VL with E42Q, A51T
notes: as for B1
B10: VH SEQ ID NO 602 / VL SEQ ID NO 318 (antibody, IgG4, V domains shown)
VH: B1 VH with D16Q, A23T, Y27G, M70I, L89A
VL: B1 VL with V29I, A51T
notes: as for B1
B11: VH SEQ ID NO 602 / VL SEQ ID NO 414 (antibody, IgG4, V domains shown)
VH: B1 VH with D16Q, A23T, Y27G, M70I, L89A
VL: B1 VL with H34A, E42Q
notes: as for B1
B12: VH SEQ ID NO 602 / VL SEQ ID NO 310 (antibody, IgG4, V domains shown)
VH: B1 VH with D16Q, A23T, Y27G, M70I, L89A
VL: B1 VL with V29I, H34A, E42Q
notes: as for B1
B13: VH SEQ ID NO 594 / VL SEQ ID NO 334 (antibody, IgG4, V domains shown)
VH: B1 VH with G45K, Y111P
VL: B1 VL with V29I, E42Q
notes: as for B1
B14: VH SEQ ID NO 602 / VL SEQ ID NO 342 (antibody, IgG4, V domains shown)
VH: B1 VH with D16Q, A23T, Y27G, M70I, L89A
VL: B1 VL with V29I, E42Q, A51T, T69R, Q100A, I106L
notes: as for B1
B15: VH SEQ ID NO 602 / VL SEQ ID NO 406 (antibody, IgG4, V domains shown)
VH: B1 VH with D16Q, A23T, Y27G, M70I, L89A
VL: B1 VL with H34A, E42Q, Q100A
notes: as for B1
B16: VH SEQ ID NO 602 / VL SEQ ID NO 462 (antibody, IgG4, V domains shown)
VH: B1 VH with D16Q, A23T, Y27G, M70I, L89A
VL: B1 VL with E42Q, Q100A
notes: as for B1
B17: VH SEQ ID NO 602 / VL SEQ ID NO 382 (antibody, IgG4, V domains shown)
VH: B1 VH with D16Q, A23T, Y27G, M70I, L89A
VL: B1 VL with V29L
notes: as for B1
B18: VH SEQ ID NO 594 / VL SEQ ID NO 382 (antibody, IgG4, V domains shown)
VH: B1 VH with G45K, Y111P
VL: B1 VL with V29L
notes: as for B1
B19: VH SEQ ID NO 602 / VL SEQ ID NO 430 (antibody, IgG4, V domains shown)
VH: B1 VH with D16Q, A23T, Y27G, M70I, L89A
VL: B1 VL with H34A, E42Q, A84G
notes: as for B1
B20: VH SEQ ID NO 594 / VL SEQ ID NO 502 (antibody, IgG4, V domains shown)
VH: B1 VH with G45K, Y111P
VL: B1 VL with E42Q, A51T
notes: as for B1
B21: VH SEQ ID NO 586 / VL SEQ ID NO 502 (antibody, IgG4, V domains shown)
VH: B1 VH
VL: B1 VL with E42Q, A51T
notes: as for B1
B22: VH SEQ ID NO 594 / VL SEQ ID NO 318 (antibody, IgG4, V domains shown)
VH: B1 VH with G45K, Y111P
VL: B1 VL with V29I, A51T
notes: as for B1
B23: VH SEQ ID NO 594 / VL SEQ ID NO 478 (antibody, IgG4, V domains shown)
VH: B1 VH with G45K, Y111P
VL: B1 VL with E42Q, N90Q
notes: as for B1
B24: VH SEQ ID NO 594 / VL SEQ ID NO 470 (antibody, IgG4, V domains shown)
VH: B1 VH with G45K, Y111P
VL: B1 VL with E42Q
notes: as for B1
B25: VH SEQ ID NO 602 / VL SEQ ID NO 326 (antibody, IgG4, V domains shown)
VH: B1 VH with D16Q, A23T, Y27G, M70I, L89A
VL: B1 VL with V29I, A51T, A84G, Q100A, I106L
notes: as for B1
B26: VH SEQ ID NO 602 / VL SEQ ID NO 334 (antibody, IgG4, V domains shown)
VH: B1 VH with D16Q, A23T, Y27G, M70I, L89A
VL: B1 VL with V29I, E42Q
notes: as for B1
B27: VH SEQ ID NO 594 / VL SEQ ID NO 462 (antibody, IgG4, V domains shown)
VH: B1 VH with G45K, Y111P
VL: B1 VL with E42Q, Q100A
notes: as for B1
B28: VH SEQ ID NO 586 / VL SEQ ID NO 494 (antibody, IgG4, V domains shown)
VH: B1 VH
VL: B1 VL with E42Q, F83V
notes: as for B1
B29: VH SEQ ID NO 602 / VL SEQ ID NO 366 (antibody, IgG4, V domains shown)
VH: B1 VH with D16Q, A23T, Y27G, M70I, L89A
VL: B1 VL with V29L, H34A
notes: as for B1
B30: VH SEQ ID NO 594 / VL SEQ ID NO 454 (antibody, IgG4, V domains shown)
VH: B1 VH with G45K, Y111P
VL: B1 VL
notes: as for B1
B31: VH SEQ ID NO 602 / VL SEQ ID NO 390 (antibody, IgG4, V domains shown)
VH: B1 VH with D16Q, A23T, Y27G, M70I, L89A
VL: B1 VL with H34A
notes: as for B1
B32: VH SEQ ID NO 586 / VL SEQ ID NO 486 (antibody, IgG4, V domains shown)
VH: B1 VH
VL: B1 VL with E42Q, A84G
notes: as for B1
B33: VH SEQ ID NO 594 / VL SEQ ID NO 350 (antibody, IgG4, V domains shown)
VH: B1 VH with G45K, Y111P
VL: B1 VL with V29I, E42Q, A51T, Q100A, I106L
notes: as for B1
B34: VH SEQ ID NO 602 / VL SEQ ID NO 494 (antibody, IgG4, V domains shown)
VH: B1 VH with D16Q, A23T, Y27G, M70I, L89A
VL: B1 VL with E42Q, F83V
notes: as for B1
B35: VH SEQ ID NO 594 / VL SEQ ID NO 326 (antibody, IgG4, V domains shown)
VH: B1 VH with G45K, Y111P
VL: B1 VL with V29I, A51T, A84G, Q100A, I106L
notes: as for B1
B36: VH SEQ ID NO 602 / VL SEQ ID NO 454 (antibody, IgG4, V domains shown)
VH: B1 VH with D16Q, A23T, Y27G, M70I, L89A
VL: B1 VL
notes: as for B1
B37: VH SEQ ID NO 594 / VL SEQ ID NO 358 (antibody, IgG4, V domains shown)
VH: B1 VH with G45K, Y111P
VL: B1 VL with V29I, E42Q, A51T
notes: as for B1
B38: VH SEQ ID NO 602 / VL SEQ ID NO 486 (antibody, IgG4, V domains shown)
VH: B1 VH with D16Q, A23T, Y27G, M70I, L89A
VL: B1 VL with E42Q, A84G
notes: as for B1
B39: VH SEQ ID NO 594 / VL SEQ ID NO 486 (antibody, IgG4, V domains shown)
VH: B1 VH with G45K, Y111P
VL: B1 VL with E42Q, A84G
notes: as for B1
B40: VH SEQ ID NO 602 / VL SEQ ID NO 438 (antibody, IgG4, V domains shown)
VH: B1 VH with D16Q, A23T, Y27G, M70I, L89A
VL: B1 VL with H34A, E42Q, F83V
notes: as for B1
B41: VH SEQ ID NO 594 / VL SEQ ID NO 342 (antibody, IgG4, V domains shown)
VH: B1 VH with G45K, Y111P
VL: B1 VL with V29I, E42Q, A51T, T69R, Q100A, I106L
notes: as for B1
B42: VH SEQ ID NO 586 / VL SEQ ID NO 462 (antibody, IgG4, V domains shown)
VH: B1 VH
VL: B1 VL with E42Q, Q100A
notes: as for B1

Positions count from the first letter of the chain named. Names may count otherwise.

The test deals with T1, recombinant human activated Factor VII (FVIIa) (human, UniProt P08709 61-212; P08709 213-466, ten glutamate residues of the Gla domain may be gamma-carboxylated).
T1 construct: chains tethered by a disulfide bond; also called Factor VIIa; rFVIIa
T1 sequence 1: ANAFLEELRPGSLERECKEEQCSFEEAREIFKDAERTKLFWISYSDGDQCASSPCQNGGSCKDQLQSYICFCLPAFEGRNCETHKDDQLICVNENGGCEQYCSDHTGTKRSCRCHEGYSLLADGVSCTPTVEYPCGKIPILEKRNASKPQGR
T1 sequence 2: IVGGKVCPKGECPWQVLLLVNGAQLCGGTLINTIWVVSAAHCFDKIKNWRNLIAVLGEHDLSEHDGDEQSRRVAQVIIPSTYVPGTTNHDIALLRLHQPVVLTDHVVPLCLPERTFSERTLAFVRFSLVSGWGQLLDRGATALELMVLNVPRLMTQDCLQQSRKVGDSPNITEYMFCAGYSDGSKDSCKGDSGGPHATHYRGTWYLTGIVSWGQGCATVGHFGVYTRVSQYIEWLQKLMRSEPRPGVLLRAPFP
The test is described as follows: BLI (Fortebio).
For B1, the Kd was 16 nM.

Turning to B2, the Kd stood at 13 nM.

Regarding B3, the Kd was 27 nM.

On to B4, for which the Kd turned out to be 24 nM.

Consider B5, for which the Kd was found to be 9.2 nM.

For the molecule B6, the Kd amounted to 43 nM.

For the molecule B7, the Kd came out at 10 nM.

For the molecule B8, the Kd was found to be 15 nM.

For the molecule B9, the Kd was found to be 14 nM.

For the molecule B10, the Kd is 9 nM.

Take B11: the dissociation constant Kd is 310 nM.

B12: the Kd came to 48 nM.

For B13, the Kd worked out at 32 nM.

For the molecule B14, the Kd turned out to be 14 nM.

As to B15, the Kd worked out at 90 nM.

Consider B16, for which the Kd is 15 nM.

On to B17, for which the Kd was found to be 14 nM.

For B18, the Kd is 140 nM.

Take B19: the Kd stood at 590 nM.

For the molecule B20, the Kd is 30 nM.

As to B21, the Kd is 15 nM.

With B22, the Kd came out at 23 nM.

For the molecule B23, the Kd is 200 nM.

With B24, the Kd stood at 35 nM.

For the molecule B25, the Kd is 8.8 nM.

Consider B26, for which the Kd worked out at 10 nM.

Consider B27, for which the Kd was 39 nM.

As for B28, the Kd was 17 nM.

Regarding B29, the Kd turned out to be 51 nM.

In the case of B30, the Kd worked out at 32 nM.

On to B31, for which the Kd was 370 nM.

Turning to B32, the Kd came out at 18 nM.

Take B33: the Kd was determined as 34 nM.

B34: the Kd turned out to be 14 nM.

As to B35, the Kd was 22 nM.

As to B36, the Kd amounted to 13 nM.

For B37, the Kd stood at 24 nM.

B38: the Kd came to 15 nM.

As to B39, the dissociation constant (Kd) was found to be 33 nM.

B40: the Kd turned out to be 600 nM.

For the molecule B41, the Kd is 120 nM.

With B42, the dissociation constant Kd turned out to be 18 nM.

Usually Kd stands for the concentration at which binding is half-saturated.
